Measured values as given in patent US20230093399A1, “METHODS FOR GENERATING PLURIPOTENT STEM CELL-DERIVED BROWN FAT CELLS” (AgeX Therapeutics, Inc., priority 2013, published 2023).

System: cell line E75
Assay: Differentiation of cell line E75 in HyStem, gene expression
Assay type: cell-based, human
Experimental: HyStem-C (BioTime, Inc. Alameda, Calif.) (BioTime, Alameda, Calif., USA) was reconstituted following the manufacturer's instructions. Briefly, the HyStem component (thiol modified hyaluronan, 10 mg) was dissolved in 1.0 ml degassed deionized water for about 20 minutes to prepare a 1% w/v solution. The Gelin-S component (thiol modified gelatin, 10 mg) was dissolved in 1 ml degassed deionized water to prepare a 1% w/v solution, and PEGDA (PEG diacrylate, 10 mg) was dissolved in 0.5 ml degassed deionized water to prepare a 2% w/v solution. HyStem (1 ml, 1% w/v) was mixed with Gelin-S (1 ml, 1% w/v) immediately before use. Pelleted cells were resuspended in recently prepared HyStem:Gelin-S (1:1 v/v) mix described above. Upon the addition of crosslinker PEGDA, the cell suspension, at a final concentration of 2.0×10^7 cells/ml, was aliquoted at 25 μl aliquot four to five times into each well of 6 well plates (Corning 3516) after partial gelation to form attached beads. Following complete gelation (20 minutes), chondrogenic medium was added to each well (i.e about 4 ml/each well of a 6 well plate). […]
The Gelin-S® component (10 mg of thiol-modified gelatin (BioTime)) is dissolved in 1.0 ml of degassed deionized water to prepare a 1% w/v solution, and polyethylene glycol diacrylate (10 mg of PEGDA) is dissolved in 0.5 ml of degassed deionized water to prepare a 2% w/v solution. […] At the desired time point, hydrogel constructs were either fixed and processed for immunohistochemical analysis or lysed using RLT (Qiagen, CA, USA) with 1% beta-mercaptoethanol for total RNA to analyze transcript expression using quantitative real-time PCR (qRT-PCR) and/or whole-genome microarray.
Total RNA was extracted directly from cells growing in 6-well plates or 10 cm tissue culture dishes using Qiagen RNeasy mini kits according to the manufacturer's instructions. RNA concentrations were measured using a Beckman DU530 or Nanodrop spectrophotometer and RNA quality was determined by denaturing agarose gel electrophoresis or using an Agilent 2100 bioanalyzer. […] The cRNA was hybridized to Illumina BeadChips, processed, and read using a BeadStation array reader according to the manufacturer's instructions (Illumina, San Diego, Calif., USA).

B1: BMP4: Bone Morphogenetic Protein 4, TGF-beta superfamily member (protein, UniProt P12644 293-408, looked up)
Bone morphogenetic protein 4: SPKHHSQRARKKNKNCRRHSLYVDFSDVGWNDWIVAPPGYQAFYCHGDCPFPLADHLNSTNHAIVQTLVNSVNSSIPKACCVPTELSAISMLYLDEYDKVVLKNYQEMVVEGCGCR
E75, 21 days HyStem, BMP4 and TGFβ3
  ameloblastin (AMBN) expression: expressed the additional marker normally associated with enamel called ameloblastin
E75, HyStem in the presence of BMP4 and TGFβ3
  markers normally associated with enamel, enamelin (ENAM) and amelogenin (AMELX): expressed the markers normally associated with enamel
E75 passage 11, 21 days in HyStem with 10 ng/mL BMP4
  adipocyte markers FABP4 and CD36 and candidate BAT cell progenitor markers such as C19orf80: relatively high levels
E75 passage 11, 21 days in HyStem with 10 ng/mL TGFβ3 together with BMP4 (10 ng/mL) or BMP2 (50 ng/mL)
  markers of endochondral ossification including COL2A1, ALPL, IBSP, and osteopontin (SPP1): relatively high levels
